Measured values from patent US11241387B2, “Carrier-binding agent compositions and methods of making and using the same” (Mayo Foundation for Medical Education and Research, priority 2015, dated 2022).

Key:
ABX = biological target: T1, ABX (Homo sapiens, UniProt P02768); assay: Bio-Layer Interferometry (BLItz) binding of antibody to ABX; conditions: pH 3, 5, 7, 9; BEV also RT, 37° C. and 58° C.
T1 construct: purchased Celgene Corporation, Summit, N.J
Method: The association and dissociation constants were calculated using the BLItz software.

[1] = system: A375 human melanoma cells; assay: A375 human melanoma xenograft in athymic nude mice; type: in vivo
Method: In vivo experiments were performed at least 2 times. The number of mice required for those experiments was determined by power analysis. Mouse tumors were measured 2-3 times/week and mice were sacrificed when the tumor was 10% by weight. […] The end point of the mouse studies was median survival. Kaplan-Meier curves were generated and Mantle-Cox test was performed to determine significance of median survival between treatment groups. The in vitro results presented are representative of at least 5 repeated experiments. Statistical analyses of in vitro and in vivo percent change from baseline experiments were done using the Student's t-test.
(§1) To test tumor efficacy, 1×10^6 A375 human melanoma cells were implanted into the right flank of athymic nude mice (Harlan Sprague Dawley, Indianapolis, Ind.). […] Tumor size was monitored 3 times/week and tumor volume was calculated with the following equation: (length×width)/2. Mice were sacrificed when the tumor size equaled 10% of the mouse body weight or about 2500 mm^3. The day 7 percent change from baseline was calculated as follows: [(tumor size on treatment day-tumor size on day 7)/tumor size on treatment day]×100.

[2] = system: Daudi human lymphoma cells; assay: Daudi xenotransplant model in athymic nude mice; type: in vivo; conditions: ABX 30 mg/kg, rituximab 12 mg/kg, or AR160
Method: as §1

CD20 = biological target: T2, CD20 (Homo sapiens, UniProt P11836); assay: Blocking of fluorescent anti-CD20 labeling of Daudi cells (flow cytometry); type: binding; conditions: Daudi cells pretreated prior to CD20 labeling
T2 construct: host or cells: Daudi B-cell lymphoma cells
T2 sequence (P11836 1-297): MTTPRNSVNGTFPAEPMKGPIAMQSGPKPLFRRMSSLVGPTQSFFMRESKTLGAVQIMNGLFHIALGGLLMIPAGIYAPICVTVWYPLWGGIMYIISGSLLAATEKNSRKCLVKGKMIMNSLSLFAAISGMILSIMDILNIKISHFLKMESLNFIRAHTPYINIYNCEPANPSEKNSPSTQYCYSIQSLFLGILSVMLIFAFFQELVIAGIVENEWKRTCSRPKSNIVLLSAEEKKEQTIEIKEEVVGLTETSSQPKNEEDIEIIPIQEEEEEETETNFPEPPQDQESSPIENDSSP
From the text: FIG. 12 depicts the results of an experiment in which CD20 positive Daudi lymphoma cells were labeled with fluorescent tagged anti-human CD20 or isotype matched control in panels F and A, respectively, and analyzed by flow cytometry.
CD20 positive Daudi lymphoma cells were labeled with fluorescent tagged anti-human CD20 or isotype matched control in panel F and A, respectively, and analyzed by flow cytometry.

## bevacizumab
ABX
  pH and temperature dependence of binding affinity to ABX: highest binding affinity observed when the particles are formed at pH 5 and 58 °C
[1]; 12 mg/kg dose
  therapeutic effect on tumor volume: not therapeutic
[1]; BEV 12 mg/kg, ABX 30 mg/kg, BEV followed by ABX, or AB160
  median survival: 14 days

## rituximab
ABX
  pH and temperature dependence of binding affinity to ABX: decreased with higher pH
[2]
  median survival: 12 days
CD20
  blocking of CD20 binding of fluorescent anti-CD20: specifically blocked
